# Test results: the supplement of paper PMC7125110
# ± gives the standard error. Fewer inactive variants are shown than the library holds.
# B1: glmS ribozyme (parent)
# chain: AUAAAAGCGCCAGAACUACAGAAAUGUAGUUGACGAGGAGGAGGUUUAUCGAAUUUUCGGCGGAUGCCUCCAAA
# Variants of: B1
# Experiment: self-cleavage kobs at 2500 uM GlcN6P; higher = faster cleavage; RNA array
# Conditions: with glucosamine-6-phosphate
# Method in brief: (§1)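 Ribozyme variants carrying barcodes were transcribed in situ on sequenced MiSeq chips by E. coli RNA polymerase and tracked at 37 °C with a hybridised Cy3 probe. They were exposed to 40 μM to 10 mM glucosamine-6-phosphate in HEPES/KCl/Mg(OAc)2 buffer. kobs came from exponential decay fits of normalised per-tile medians, and kcat and KM from weighted Michaelis–Menten fits.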
row,Variant,self-cleavage kobs at 2500 uM GlcN6P
1,G13C A36G A64U C70G,< 1e-05 s⁻¹
2,A12G G63A,< 1e-05 s⁻¹
3,G29A U65A C71A,4.59e-05 ± 1.7e-05 s⁻¹
4,G13U G35U U54A,< 1e-05 s⁻¹
5,C16U G32U U46G,6.51e-05 ± 2.5e-05 s⁻¹
6,G26U A36C,< 1e-05 s⁻¹
7,A12U G41U A48U,7.03e-05 ± 3e-05 s⁻¹
8,C16A A36G U65G,< 1e-05 s⁻¹
9,C16U A42U U54G,0.000152 ± 3e-05 s⁻¹
10,A14G G41C A42U,3.8e-05 ± 1.4e-05 s⁻¹
11,A15G G51U C61A,< 1e-05 s⁻¹
12,A14C C50A U54C,< 1e-05 s⁻¹
13,A14U A33U A36C,< 1e-05 s⁻¹
14,A14U U30G G38A U69G,0.00012 ± 5.3e-05 s⁻¹
15,A15U U45A U57C,4.29e-05 ± 1.9e-05 s⁻¹
16,C16U G32C U54C,5.6e-05 ± 2.1e-05 s⁻¹
17,A15G G29A A36G,< 1e-05 s⁻¹
18,A14U C67A C71U,0.000265 ± 5.2e-05 s⁻¹
19,A12G A39U U49G U55G,< 1e-05 s⁻¹
20,A15U G37U G43C U56A C68G C71G,< 1e-05 s⁻¹
21,A15U C16G A33U U49C,< 1e-05 s⁻¹
22,A15G A64C C71U,7.46e-05 ± 1.9e-05 s⁻¹
23,A12U G37U G38A,< 1e-05 s⁻¹
24,A14U G32C C67A,3.21e-05 ± 1.6e-05 s⁻¹
25,A14C C16A A42G,5.08e-05 ± 2e-05 s⁻¹

row,Variant,self-cleavage kobs at 2500 uM GlcN6P
1,A14G U55G U69A,0.000475 ± 8.8e-05 s⁻¹
2,A15U U54C U65A,0.000123 ± 2.8e-05 s⁻¹
3,G29A G32C A64U,< 1e-05 s⁻¹
4,G13C A15U C61G,< 1e-05 s⁻¹
5,A15C G32C U55C U57C U65C,< 1e-05 s⁻¹
6,A15C U47C U55C,0.000237 ± 7.7e-05 s⁻¹
7,A15G G32A C71G,0.000277 ± 0.0001 s⁻¹
8,A14U G29C G44U,< 1e-05 s⁻¹
9,A14U A48U U54G G60C U69A C71U,4.74e-05 ± 1.9e-05 s⁻¹
10,A12U A14U A33C C50U,< 1e-05 s⁻¹
11,C16A G38C G40C G44U C67A U69C,< 1e-05 s⁻¹
12,A14U G43U C68G,0.0033 ± 0.00062 s⁻¹
13,C16G U30A C71U,0.000103 ± 3.5e-05 s⁻¹
14,A12U A42G A64U,6.81e-05 ± 2.1e-05 s⁻¹
15,C16A G40C A42U,< 1e-05 s⁻¹
16,A12G G29U C58A G59U C67A,< 1e-05 s⁻¹
17,A14G C16U A36G,4.05e-05 ± 1.5e-05 s⁻¹
18,A12G G13C G29A G40A U45C,< 1e-05 s⁻¹
19,A14G C67G C68A,2.78e-05 ± 1.3e-05 s⁻¹
20,A14U C16G U65A,5.56e-05 ± 1.9e-05 s⁻¹
21,G13U A36C A42G C58U,< 1e-05 s⁻¹
22,A15U G29U U55A,0.00225 ± 0.00062 s⁻¹
23,A12G A48C C50U,< 1e-05 s⁻¹
24,C16G A42G A64U G66A C68A,< 1e-05 s⁻¹
25,C16G U31G A42G,0.000761 ± 0.0003 s⁻¹

row,Variant,self-cleavage kobs at 2500 uM GlcN6P
1,A14G C16A U45C G66C,0.000167 ± 3.4e-05 s⁻¹
2,C16A C34A U65A,< 1e-05 s⁻¹
3,A15G U55A A64U,9.74e-05 ± 1.8e-05 s⁻¹
4,A14U U47A C71G,0.000172 ± 6.8e-05 s⁻¹
5,A12U G44C C61G,< 1e-05 s⁻¹
6,G29A G60U C71A,< 1e-05 s⁻¹
7,G13C C34G U49C C71A,< 1e-05 s⁻¹
8,C16G G29C U31G,0.00447 ± 0.00064 s⁻¹
9,G13A A52C G60A,< 1e-05 s⁻¹
10,A14G C58U G66U C67G,7.46e-05 ± 3.2e-05 s⁻¹
11,A14C G29C U30C A52U U65A,< 1e-05 s⁻¹
12,C16G C34U A36C,< 1e-05 s⁻¹
13,A15U G29A G62A,< 1e-05 s⁻¹
14,G13U A39G C71A,0.000144 ± 4.9e-05 s⁻¹
15,A15C U31C U45A G59U U65A,< 1e-05 s⁻¹
16,C16U G37U A42G G51U,< 1e-05 s⁻¹
17,A12G G29C G35U A39U G41C A64G,< 1e-05 s⁻¹
18,A14U G43C U45G,0.000172 ± 4.1e-05 s⁻¹
19,C16U U57G U65A C70A,0.000271 ± 0.00013 s⁻¹
20,A12G U45G G60U,< 1e-05 s⁻¹
21,A14U A15U G40U,0.000122 ± 3.7e-05 s⁻¹
22,C16U G41C G44C G59C,< 1e-05 s⁻¹
23,C16U A33G U69A C70G,7.7e-05 ± 3.3e-05 s⁻¹
24,C16U U46C U56C,0.000416 ± 7.9e-05 s⁻¹
25,C19A G44A,0.000112 ± 4e-05 s⁻¹

# Variants of: B1
# Experiment: self-cleavage kobs at 10000 uM GlcN6P; higher = faster cleavage; RNA array
# Conditions: with glucosamine-6-phosphate
# Method in brief: as §1
row,Variant,self-cleavage kobs at 10000 uM GlcN6P
1,A12G G63A,< 1e-05 s⁻¹
2,C16U G32U U46G,0.000138 ± 2.5e-05 s⁻¹
3,A15G G29A A36G,< 1e-05 s⁻¹
4,A14U G32C C67A,8.69e-05 ± 2.8e-05 s⁻¹
5,A14G U55G U69A,0.000104 ± 2.4e-05 s⁻¹
6,A15U U54C U65A,0.000335 ± 3.8e-05 s⁻¹
7,A15C G32C U55C U57C U65C,< 1e-05 s⁻¹
8,A15G G32A C71G,0.000201 ± 3.3e-05 s⁻¹
9,C16A C34A U65A,< 1e-05 s⁻¹
10,A15U G29A G62A,< 1e-05 s⁻¹
11,G13U A39G C71A,0.000285 ± 6.4e-05 s⁻¹
12,A15C U31C U45A G59U U65A,< 1e-05 s⁻¹
13,A14U G43C U45G,0.000252 ± 6.9e-05 s⁻¹
14,A14U A15U G40U,0.000149 ± 2.6e-05 s⁻¹
